# From the DeepSol protein solubility set
# Experiment: soluble on expression in E. coli; label from the status in PepcDB or PDB records
row,Sequence,soluble on expression in E. coli
1,MGSDKIHHHHHHMPMRKEQQSRPDLRVLKSLMVCATIAASLILHSPSLMAAEEATGATSTAPSACSINPSEKLKNLFTEVKQYLGIRYRFGGDTPSGFDCSGFVRFMFNKEFNVNLPRSSREMATIGTRIDRNELRPGDLVFFKNAEDRINHVGIFVGNDTFVHSSLSKGITRDTLNESYYSKRFATGVRILDIQGNRIPDDFNNLFDESNNGNSPS,not soluble
2,MGSDKIHHHHHHMPQDTISVSLLDSRIQASRPNYYNPLLVYKTAKIKVNKDAASYKILNLTVNNYEKQIETLEKENGNGEDQFGKEKTLLKTAMSNFFNSSEESLKSADLFIYKDKPEELKNYLKVHRHTFVVLINTEGDASDDGLKIYKDDYNKFKKPSTFFVFSTKEQEIKELFKDKGNTEKERNIAVYSNNKDNLHLKFISQYLHQASIFHAVNPYGMPLAATPLVDDTVIGKLRTAKINFYSLLNETGLDGVPAFKEGVDLAGGAIDEQFTYHYIKNEAIIELIRIWNKNNRQNSKLSALQLSGARDNAYTSAIECLLKRFVDRGLIIEYKNLRLTLSPTPQLKLELSVNITYNFSINAVALVITTQDIVDYQNSLSA,not soluble
3,MGSDKIHHHHHHMPRPRRSQVSVEDTPMYHCCSRVVRRAYLCGDDKFSGKNYDHRRGWVEAQLLKLAEVFAIDVAAYAVMSNHLHVVLSIDIYQANRWTGIEVINQWHLLFKGTDITQKFAKGETLEDYEALELTYTIALYRSRLSDISWFMRALNEPIARRANEEDECTGRFWEGRFKSQALLDEAAVLACMVYVDLNPIRSTIAKTPETSDFTSIKRRITAALNGTQPKALLPFVGNERKDMPKGLTFHLKDYLQLVEDTGKAVRNDKRGCISPNSHSILNRLNIPADNWLKIINEFGKLFKGPVGTLQELTAYCEHLEKQRRHYCHACQHLAAS,not soluble
4,MGSDKIHHHHHHMPVYLYYGEDTYSLNQKIDHLVNQNVHAEWKDFNYIKLSGNEKNIAAKVFTEVMTLPFGEGNKIVHTDSDHLIGSLSNEDNNQELENQLSRIPASNILLITSNKKPDSRRTVVKTILKYAQQEEFPLVPCWDKKGIVNLIGKYAAIHQVKFTPDVTDYLVEAIGNNTARVDSEFAKLAVYASEKIISLEEIKQLVSNHNTDYQKLTIAMLRNHSNLAIAQVDKLLDSNEHPLKIVATLTSFFRTWLITKAGVEARLSDIKIAEIAEVKNPKRLYYLKDEIKFVGVQKLKNSLTLLLQLETELKSGTNNLISRIIEICMI,not soluble
5,MGSDKIHHHHHHMPYPKKVTIKEVGPRDGLQNEPVWIATEDKITWINQLSRTGLSYIEITSFVHPKWIPALRDAIDVAKGIDREKGVTYAALVPNQRGLENALEGGINEACVFMSASETHNRKNINKSTSESLHILKQVNNDAQKANLTTRAYLSTVFGCPYEKDVPIEQVIRLSEALFEFGISELSLGDTIGAANPAQVETVLEALLARFPANQIALHFHDTRGTALANMVTALQMGITVFDGSAGGLGGCPYAPGSSGNAATEDIVYMLEQMDIKTNVKLEKLLSAAKWIEEKMGKPLPSRNLQVFKSS,not soluble
6,MGSDKIHHHHHHMQAEAQHPKAEQYRTARLSRDARFDGLFFVGVFSTGIFCRPICPAVPAKEANVRYFDDALSAAQAGLRPCLRCRPDSAPGSNPWLGKQTSLNRAMSLIDAGVLCGPQAIPMTGLAERLGISERYLRQLFHDSLGTSPKQYALYQQLMFAKQLLHQTKMPITQVAYAAGFNSVRRFNEIFRQQLQLTPSEIRKATGQPSLPVQGLTLKLAYRPPYDWQHLRSFFAQRAVPEMEWLDEQSYGRSFVLGAAKGYFCAVHSEQEACFHVTIHLAEADSLSQLKGIISHIRRILDLDADMLTIGDKLQALGKALPQVSPGLRLPGVWSPFEAACRAILGQQVSVTQAIKLLGQLVADHGETISLNEKTVRLFPTPAALVDASLDGLKMPGIRKEAIRALAAFVMANPESEIDDWLQIKGIGPWTLDYVRLRGLSLPDVLLVGDLVVKQQLLVNLRPEPSSCDGEPAEDEDPKAAKKRAQAQYQALSQAVLRQVAPWGSYLTLQLWNRQ,not soluble
7,MGSDKIHHHHHHMQDIDEFLKKHRITEIEAIIPDMAGIARGKIIPRSKFETGESMRLPQAVMIQTVTGDYPEDGSLTGVTDPDMVCLPDASTIRLIPWAIDPTAQVIHDCVHFDGTPVEISPRRVLRRVLELYKAKGWKPVIAPELEFYLVDMNKDPDLPLAPPIGRTGRPETGRQSYSIEAVNEFDPLFEDIYEYCEVQDLEVDTLIHEVGAAQMEINFLHGDPLNLADRVFLFKRTVREAALRHHMYATFMSKPMENEPGSAMHVHQSIVDEETGRNLFTGDDGGPTDMFYAYIAGLQKYTPALMPIFAPYINSYRRLSRFMAAPINVQWGYDNRTVGFRVPHSSPVSRRVENRIPGVDCNPYLAIAGTLAAGYLGMTRRLEPTEPLASDGYSLPYQLPRNLEEGLTLMSACEPLAEILGEKFVKAYLALKETEYEAFFRVISSWERKHLLLHV,not soluble
8,MGSDKIHHHHHHMQDYYSTLIGWMIPISRAMEAHQIDLTTALKECNISQDVMTDQESRIAAEKFYNLIEYCNKKLGRHDFSILIAEQFHPGMFHALGYAMMSSNTLQDALDRIAHYKRVVSNTCQLVTYESNNQLVFEMNIFTYEGTNRPVLSLATVETFLATIIRFARELVTLDFSPEKICFAYQKPAHDVTYLEEFFNCDIEFNSDKNAIIFNFEQAQEKLMCGNPLITHSHEKMLDEFMARIDKNDLSHVIKNKIFDLLPLGAPSQIVIAEDLGMSLRNLQRKLQEQGTSYKEILESTRKKLAMDYIVQQHLSLSEIGYLVGFSSVGNFNRAFKRWTNQTPGEYRQSKKT,not soluble
9,MGSDKIHHHHHHMQFGKTDTPEDIDFTLPKDHPDTKKILSEAKPGKHFNVYVGCAKWNKTDLKNFYPKGTKDELQYYATQFNSIELNATFYKSPSKDQVQTWKAKAAKGFKFFPKIPNTISHFKRLVGVETIVEEFCDAVVLFEENLGMSFLQMHDNFKPKDMDKLDAFLKKFPASVPLAVELRNEEWYSDKNVQDDLHAMLVKYKKTFVLVDTAARRDIMHMRLTSDKAFIRYVGANHESDYARLDDWIKRIKTWRKEGLNELYFFVHQNVELESPLLSAYFIEKMNKEFDLDLTVPQTIKKKQ,not soluble
10,MGSDKIHHHHHHMQHWAIFATDSYSGSLLGRMLAADIQPDEGQICNLPARVGWVSLGLQQALLERELAKDELDYGSTVEALVLECCQDSAQLPALLQKVGLEPLRQRGFRQLSTGETRRVMLARALAMLPQLLILDDPYAGLDAEHQGSLSELLCEVAAHSQLLVITSRQEELPPCISHVALFNSEMLKSGQHVHKLSAPMSIEQWHSHPVMAQLNALSASRSDELLALMERQRHNAEAFDPLVEIKNGKVEYVSCLIFKGVNWRINAGQHWQVRGPNGCGKSTLLGLILGDHPQCYSNDITLFGRPRGSGESIWQIKQRIGIVSSALHLQYRVSCSALDVLLSGFYDSIGLYHKPTKPQVDLAKEWLAILHMNEFASTGFKQLDYGQQRLLLIGRALIKQPLLLILDEPYQGLDFINRTLVMRALEMIAEHHLSQLLYVSHHREDALPAIKNFVDFIKQDNGYSVEVSHRPNELAQRMPIP,not soluble
11,MGSDKIHHHHHHMQILIYSYNYHPEPIGIAPLMTELAEGLVKRGHQVRVITGMPNYPQRQIYDRYRGKLYVTEQKNGVKIQRSYLRIKSKPNLIDRLLLELSFVFTSLPQALKGERPDVILLTIPPLLVCLPATLIGWLYNCPVVLNVQDILPEAGVRVGLIKNKLMIQALEALEKFAYRTAHTISVIADGFVDNLINKGVPANKIACIPNWVNLNFIRPLPKVNNSWRATHQLDGKFVVLYSGNIALTQGLETVIEAAARLRHLKEIIFVVAGESQALERLQKHCLACGADNVLLLTLQAREKLPQMLAAADVGLIVQKCNVISFNMPSKIPLLLASGRPIVGSVPALGTAAKAIRESGGGVIVEPESAGALAAAVLDLYHQPELAAQLGCKGRKFAVENYSFEQALDRYEELFADAIAKRATNLDILPEMSSKQSLVDI,not soluble
12,MGSDKIHHHHHHMQITKRNVELRVDDSLMRVYVASPKPVGVYPGIVFYSDIYQLGSPIIRLANYLAGFGYVVAAPEIFHRLEPIGLVIEPDDLGRMRGNDNARRTAIAEYDADSRAVIDFLKAETTVNANKIGTVGFCIGGHLAFRAAFENEVKASACCYPTGIPSGKLGKGVADTIHRVKEIKGEMLLVLGTLDPHIPESDRQILIKAIEDAKVPHKVVLYEAEHTFMRDDGYRYDSAATTFAWAEIVEFLGRVFAD,not soluble
